Assay results published in IntAct's records for PubMed 21108945.

Columns and labels:
nbn_human NBN [1] = target: nbn_human NBN (UniProt O60934)
nbn_human NBN [2] = target: nbn_human NBN (UniProt O60934); remark: listed apart in the source

UniProt O60934, sequence (O60934 whole entry): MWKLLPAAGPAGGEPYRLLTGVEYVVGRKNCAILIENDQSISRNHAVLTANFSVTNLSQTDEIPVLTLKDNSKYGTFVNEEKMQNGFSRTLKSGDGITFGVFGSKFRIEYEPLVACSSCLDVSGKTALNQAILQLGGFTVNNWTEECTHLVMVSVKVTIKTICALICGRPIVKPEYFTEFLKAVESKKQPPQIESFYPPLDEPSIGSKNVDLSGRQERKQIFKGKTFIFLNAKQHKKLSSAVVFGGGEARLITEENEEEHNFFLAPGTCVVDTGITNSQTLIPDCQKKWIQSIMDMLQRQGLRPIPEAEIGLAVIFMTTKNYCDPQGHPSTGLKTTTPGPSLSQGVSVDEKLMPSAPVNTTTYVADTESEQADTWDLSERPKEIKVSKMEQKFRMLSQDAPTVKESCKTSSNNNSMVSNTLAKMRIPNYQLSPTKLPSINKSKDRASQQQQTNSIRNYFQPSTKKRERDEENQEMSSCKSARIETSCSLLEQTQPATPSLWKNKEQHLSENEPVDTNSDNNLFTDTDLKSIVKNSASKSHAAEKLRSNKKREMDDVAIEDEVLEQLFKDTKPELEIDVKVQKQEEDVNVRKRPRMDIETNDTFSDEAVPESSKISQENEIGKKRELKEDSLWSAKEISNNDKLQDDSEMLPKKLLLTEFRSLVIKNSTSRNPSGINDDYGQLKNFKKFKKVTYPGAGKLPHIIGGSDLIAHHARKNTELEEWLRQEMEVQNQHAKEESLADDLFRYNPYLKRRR

effect of a mutation on the interaction (nbn_human NBN [1]): disrupting interaction
effect of a mutation on the interaction (nbn_human NBN [2]): decreasing interaction
Substance: Histone acetyltransferase p300 (Homo sapiens), Q09472 S106A
